Measured values reported in patent US20030199671A1 (published 2003).
Positions of bridges follow the written chain, without caps; N, C: chain ends.

Assays:
human IgG2 [1] = target: T1, human IgG2 (human, UniProt P01859-1 1-326 = IgG part); assay: mini-column chromatography, immobilised ligand
T1 construct: Calbiochem; plasma IgG2 in anisotropy studies, myeloma-derived (cat. 400122) in batch/column studies; also called hIgG2
Procedure: (§1) Thus, 250 μg of target (hIgG1, hIgG2, hIgG3, hIgG4, goat IgG and bovine IgG) at 0.250 mg/ml in PBST, pH 7.2 or TBST, pH 7.3 was loaded onto a 350 μl column (3×50 mm) run at 0.200 ml/min. flowrate (170 cm/hr). Flowthrough, elution and cleaning fractions were collected and assayed for total protein recovery by size-exclusion HPLC.

human IgG1 [2] = target: T2, human IgG1 (human, UniProt P01857-1 1-330 = IgG part); assay: mini-column chromatography, immobilised ligand
T2 construct: Calbiochem; human plasma IgG1 in anisotropy studies, myeloma-derived (cat. 400120) in batch/column studies; also called hIgG1
Procedure: as §1

human IgG4 [3] = target: T3, human IgG4 (human, UniProt P01861-1 1-327 = IgG part); assay: mini-column chromatography, immobilised ligand
T3 construct: Calbiochem; plasma IgG4 in anisotropy studies, myeloma-derived (cat. 400126) in batch/column studies; also called hIgG4
Procedure: as §1

human IgG1 [4] = target: T2, human IgG1; assay: fluorescence anisotropy; pH 5.7, 0.1 M NaCl
Procedure: (§2) All measurements were performed in 384 well microplates with 20 nM fluorescein-labeled peptide and various concentrations of the IgG isoform in a volume of between 10 and 20 μl using a Tecan Polarion fluorescence polarization plate reader. All binding buffers included 0.01% (v/v) Tween 20 to prevent peptide adsorption to the microplate. The binding mixture was equilibrated for 10 minutes in the microplate at 30° C. prior to performing the measurement.

[5] = target: T4, human IgG (unfractionated, polyclonal); assay: filterplate; 25 mg human IgG applied per ml resin
T4 construct: also called hIgG; polyclonal human IgG
Procedure: After incubation of the samples, with shaking, at room temperature for one hour, the supernatant liquid from each well, containing unbound IgG, was collected by centrifugation into the cognate well of a collection plate. The assay plate was washed three times with PBST (200 μl/wash) and bound IgG was eluted from the media samples by incubation for 30-60 minutes at room temperature in 100 μl Elution Buffer (100 mM CAPS, pH 11.5). Eluates were collected by centrifugation for analysis. Protein concentrations were determined from A₂₈₀ measurements and plotted as a function of mg human IgG bound per ml resin vs. mg human IgG applied per ml resin.
These were subsequently tested in batch filterplate format for relative static capacity, human IgG subtype and species specificity as previously described. In addition, total dynamic capacities were determined for comparison. […] The static capacity (mg IgG bound per ml resin) was measured at the 2.5 mg/ml target concentration (25 mg human IgG applied per ml resin).

human IgG1 [6] = target: T2, human IgG1; assay: fluorescence anisotropy; pH 5.7, 0.15 M NaCl
Procedure: as §2

human IgG2 [7] = target: T1, human IgG2; assay: fluorescence anisotropy; pH 5.7, 0.01 M Tris-acetate
Procedure: as §2

human IgG1 [8] = target: T2, human IgG1; assay: as above
Procedure: as §2

human IgG4 [9] = target: T3, human IgG4; assay: as above
Procedure: as §2

human IgG1 [10] = target: T2, human IgG1; assay: fluorescence anisotropy; pH 5.7, 0.15 M NaCl; remark: listed apart in the source
Procedure: as §2

human IgG2 [11] = target: T1, human IgG2; assay: batch binding, immobilised ligand
Procedure: (§3) IgG targets were diluted into 10 mM phosphate buffer containing 150 mM NaCl and 0.01% Tween 20, pH 7.2 (PBST) or 50 mM Tris buffer containing, 150 mM NaCl and 0.01% Tween-20, pH 7.5 (TBST). Batch (static) binding and elution studies were conducted in a 96-well assay filterplate (Millipore MultiScreen-HV, with 0.45 μm Durapore membrane, product no. MAHVN4510). The target was allowed to incubate with the resin for 1-1.5 hours with shaking at room temperature. Unbound target was collected by centrifugation of samples from the assay plate directly into a low-UV absorbing 96-well collection plate (Costar, product no. 3635 or Greiner, product no. 655801). The unbound target was then quantitated by reading the absorbance at 280 nm (normalized to 1 cm pathlength, 1.4 mg/ml A280 extinction coefficient) of the collection plate on a microplate spectrophotometer (Molecular Devices Corp., SPECTRAmax PLUS) against a buffer blank.
(§4) The percentage bound target was determined by subtracting the mass determined as unbound from the corresponding condition's control values (control non-filtered added directly to the collection plate and/or the negative control). The assay plate was washed (3×) with 200 μl of binding buffer by vacuum filtration followed by addition of 100 μl of various elution conditions (e.g.: 0.1 M sodium bicarbonate buffer, pH 8.5 and/or 0.1 M sodium citrate buffer, pH 4.0). After a 30-60 minute incubation with shaking at room temperature, the eluted target was collected by centrifugation of the assay plate into another collection plate and quantitated in a similar manner. Percent elution of total load was then determined to characterize elution recovery efficiency under various conditions.

human IgG3 = target: T5, human IgG3 (human, UniProt P01860-1 1-377); assay: batch binding, immobilised ligand
T5 construct: Calbiochem; plasma IgG3 in anisotropy studies, myeloma-derived (cat. 400124) in batch/column studies; also called hIgG3
Procedure: as §3, §4

human IgG1 [12] = target: T2, human IgG1; assay: batch binding, immobilised ligand
Procedure: as §3, §4

human IgG4 [13] = target: T3, human IgG4; assay: batch binding, immobilised ligand
Procedure: as §3, §4

human IgG1 [14] = target: T2, human IgG1; assay: fluorescence anisotropy; pH 7.4 PBS (second value, unlabelled row)
Procedure: as §2

human IgG1 [15] = target: T2, human IgG1; assay: fluorescence anisotropy; pH 5.7, 0 M NaCl
Procedure: as §2

T2 sequence (P01857 other isoform, or with tags, fused parts or gaps): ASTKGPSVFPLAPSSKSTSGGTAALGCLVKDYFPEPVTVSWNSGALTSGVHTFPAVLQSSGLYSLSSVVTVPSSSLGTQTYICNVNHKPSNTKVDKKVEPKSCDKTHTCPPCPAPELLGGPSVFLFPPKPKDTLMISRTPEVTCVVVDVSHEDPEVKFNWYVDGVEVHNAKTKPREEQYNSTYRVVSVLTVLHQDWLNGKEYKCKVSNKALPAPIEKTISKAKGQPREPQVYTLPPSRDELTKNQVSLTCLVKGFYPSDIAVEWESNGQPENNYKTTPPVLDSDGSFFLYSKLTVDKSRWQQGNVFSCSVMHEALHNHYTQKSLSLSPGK
T3 sequence (P01861 other isoform, or with tags, fused parts or gaps): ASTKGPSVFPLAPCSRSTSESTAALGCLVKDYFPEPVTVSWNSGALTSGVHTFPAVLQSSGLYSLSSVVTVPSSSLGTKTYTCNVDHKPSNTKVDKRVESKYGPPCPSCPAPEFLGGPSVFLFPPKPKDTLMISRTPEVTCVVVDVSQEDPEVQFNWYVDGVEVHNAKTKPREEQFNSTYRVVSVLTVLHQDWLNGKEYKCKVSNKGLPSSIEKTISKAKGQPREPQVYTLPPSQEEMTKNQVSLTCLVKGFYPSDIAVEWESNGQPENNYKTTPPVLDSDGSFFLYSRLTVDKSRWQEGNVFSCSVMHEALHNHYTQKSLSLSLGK
T1 sequence (P01859 other isoform, or with tags, fused parts or gaps): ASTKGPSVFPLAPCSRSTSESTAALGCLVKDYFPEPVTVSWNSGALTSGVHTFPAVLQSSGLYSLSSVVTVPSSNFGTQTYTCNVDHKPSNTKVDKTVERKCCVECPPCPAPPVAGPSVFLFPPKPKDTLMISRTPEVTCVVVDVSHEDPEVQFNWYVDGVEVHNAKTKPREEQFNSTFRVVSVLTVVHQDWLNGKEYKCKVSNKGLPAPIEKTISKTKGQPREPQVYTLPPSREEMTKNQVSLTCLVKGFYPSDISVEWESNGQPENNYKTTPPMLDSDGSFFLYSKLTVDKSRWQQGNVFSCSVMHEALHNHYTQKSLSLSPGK
T5 sequence (P01860 other isoform, or with tags, fused parts or gaps): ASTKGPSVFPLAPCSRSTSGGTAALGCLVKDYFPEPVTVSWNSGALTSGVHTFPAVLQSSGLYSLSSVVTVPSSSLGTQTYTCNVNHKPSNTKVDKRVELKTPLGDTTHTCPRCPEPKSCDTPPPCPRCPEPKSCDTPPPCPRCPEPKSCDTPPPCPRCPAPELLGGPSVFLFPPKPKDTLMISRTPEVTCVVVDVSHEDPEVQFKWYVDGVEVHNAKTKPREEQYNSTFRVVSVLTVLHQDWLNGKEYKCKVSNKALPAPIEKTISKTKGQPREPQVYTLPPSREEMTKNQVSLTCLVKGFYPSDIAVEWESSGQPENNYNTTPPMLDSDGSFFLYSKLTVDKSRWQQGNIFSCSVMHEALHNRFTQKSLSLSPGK

binding efficiency (human IgG2 [1]): > 90%
binding efficiency (human IgG1 [2]): > 90%
binding efficiency (human IgG4 [3]): > 90%
Kd (human IgG1 [4]): 970 nM
Static Cap. [5]: 24 mg/mL
Kd (human IgG1 [6]): 840 nM
Kd (human IgG2 [7]): 68 nM
Kd (human IgG1 [8]): 74 nM
Kd (human IgG4 [9]): 300 nM
Kd (human IgG1 [10]): 840 nM
Bound (% of Total Load) (human IgG2 [11]): 78%
bdg % (of Total Load) (human IgG2 [11]): 92%
Bound (% of Total Load) (human IgG3): 0%
bdg % (of Total Load) (human IgG3): 3%
Bound (% of Total Load) (human IgG1 [12]): 88%
bdg % (of Total Load) (human IgG1 [12]): 91%
Bound (% of Total Load) (human IgG4 [13]): 61%
bdg % (of Total Load) (human IgG4 [13]): 82%
Kd (human IgG1 [14]): 2900 nM
Kd (human IgG1 [15]): 74 nM
Binder: Ac-GDDHMCVYTTWGELIWCDNHEPGPEGGGK-NH2 (disulfide 6-17 (inferred), Synthetic disulfide-cyclised peptide) [DX249]
